Results published in patent US20220242973A1 (Molecular Partners, published 2022).

What was measured:
[1] = molecular target: T1, Recombinant mouse FAP (mouse, UniProt P97321 26-761); test: SPR (ProteOn), mouse FAP immobilized on GLC chip
T1 construct: Bought soluble recombinant protein; also called mFAP
T1 sequence (looked up): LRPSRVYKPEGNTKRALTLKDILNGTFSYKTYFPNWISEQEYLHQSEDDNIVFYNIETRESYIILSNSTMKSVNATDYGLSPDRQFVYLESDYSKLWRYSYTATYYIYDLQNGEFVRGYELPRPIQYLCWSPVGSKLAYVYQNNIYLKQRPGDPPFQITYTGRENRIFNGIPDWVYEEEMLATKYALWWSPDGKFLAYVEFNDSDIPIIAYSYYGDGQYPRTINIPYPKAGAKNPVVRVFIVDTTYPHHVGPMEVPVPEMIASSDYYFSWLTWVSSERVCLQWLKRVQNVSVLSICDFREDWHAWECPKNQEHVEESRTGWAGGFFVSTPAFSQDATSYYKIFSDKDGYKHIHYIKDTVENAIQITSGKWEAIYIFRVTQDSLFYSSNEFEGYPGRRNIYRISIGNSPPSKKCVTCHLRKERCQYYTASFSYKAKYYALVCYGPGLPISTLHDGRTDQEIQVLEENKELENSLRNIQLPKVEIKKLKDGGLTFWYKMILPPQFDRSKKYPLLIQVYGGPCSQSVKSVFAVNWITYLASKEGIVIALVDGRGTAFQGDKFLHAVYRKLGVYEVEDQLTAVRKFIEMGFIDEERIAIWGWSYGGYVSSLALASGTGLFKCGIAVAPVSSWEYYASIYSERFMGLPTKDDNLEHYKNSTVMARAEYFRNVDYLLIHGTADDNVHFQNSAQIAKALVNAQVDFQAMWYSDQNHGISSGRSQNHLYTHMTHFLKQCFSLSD
Protocol: Briefly, mouse FAP was diluted in 10 mM Na-acetate pH5.3 buffer and covalently immobilized on a GLC chip (BioRad) to a level of around 2000 resonance units (RU). The interaction of DARPin® protein #41 and mFAP was then measured by injecting 200 μl running buffer (PBS, pH7.4 containing 0.005% Tween20®) containing serial dilutions of DARPin® protein #41 covering a concentration range between 50 nM and 3 nM (on-rate measurement), followed by a running buffer flow for 30 minutes at a constant flow rate of 100 μl/min (off-rate measurement). The regeneration was performed using 15 μl of 10 mM Glycine pH 2 followed by 15 μl of 124 mM H₃PO₄. The signals (i.e. resonance unit (RU) values) of the interspots and a reference injection (i.e. injection of running buffer only) were subtracted from the RU traces obtained after injection of DARPin® protein #41 (double-referencing). The binding of DARPin® protein #41 to hFAP was determined as described in Example 2.
Dissociation constants (KD) were calculated from the estimated on- and off-rates using standard procedures known to the person skilled in the art and are reported in Table 7. […] The dissociation constant of DARPin® protein #41 for binding to mouse FAP was determined to be 1.3 nM.

[2] = molecular target: T2, Human FAP expressed on the cell surface (WI38, CHO-FAP1.9, U87MG cells) (human, UniProt Q12884 1-760); test: FACS on WI38 cells (FAP on the cell surface), His-tag detected with Penta-His AF647 conjugate, median fluorescence intensity
T2 construct: whole, on cells; Endogenous on WI38 and U87MG cells; from a human FAP cDNA (OriGene) in CHO-FAP1.9 cells; also called hFAP; FAP+ cells
T2 sequence (looked up): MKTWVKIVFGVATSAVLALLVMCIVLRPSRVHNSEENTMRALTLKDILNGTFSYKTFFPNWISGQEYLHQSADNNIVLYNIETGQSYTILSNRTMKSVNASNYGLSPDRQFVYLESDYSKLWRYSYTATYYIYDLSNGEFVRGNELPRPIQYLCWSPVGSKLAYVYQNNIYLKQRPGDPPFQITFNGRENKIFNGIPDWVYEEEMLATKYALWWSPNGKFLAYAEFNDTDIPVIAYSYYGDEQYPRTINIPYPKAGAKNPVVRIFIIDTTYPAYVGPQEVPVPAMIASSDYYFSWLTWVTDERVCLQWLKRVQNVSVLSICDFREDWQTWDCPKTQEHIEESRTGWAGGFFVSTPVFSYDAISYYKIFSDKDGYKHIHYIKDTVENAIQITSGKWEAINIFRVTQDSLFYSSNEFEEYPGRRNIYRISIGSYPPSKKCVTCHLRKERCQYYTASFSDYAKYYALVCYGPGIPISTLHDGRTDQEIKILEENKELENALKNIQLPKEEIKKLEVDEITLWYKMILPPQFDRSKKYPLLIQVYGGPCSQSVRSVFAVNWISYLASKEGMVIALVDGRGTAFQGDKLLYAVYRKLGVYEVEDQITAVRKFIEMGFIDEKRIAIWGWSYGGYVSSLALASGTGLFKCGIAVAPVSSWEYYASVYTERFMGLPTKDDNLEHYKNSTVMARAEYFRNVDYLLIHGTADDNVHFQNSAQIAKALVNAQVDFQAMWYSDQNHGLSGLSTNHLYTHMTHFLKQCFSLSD
Protocol: In order to determine whether the fusion of a biologically active molecule to a FAP-specific ankyrin repeat domain affects the ability of the molecule to specifically recognize and bind to FAP expressed on the surface of cells, the binding of selected ankyrin repeat fusion proteins to FAP-expressing cells was tested. U87 MG cells and WI38 cells are known to express FAP on the cell surface and they were chosen as representative cells for these experiments. FAP expression on the U87 MG and WI38 cells was confirmed by FACS analysis (data not shown).
Using multi-well plates, 40,000 cells (either U87MG or WI38) were added per well in 50 μl of PBS. 50 μl of appropriate dilutions (2× dilution steps) of ankyrin repeat fusion protein (DARPin® protein #40 or DARPin® protein #41) was then added to the cells and incubated for 30 minutes on ice. After the ankyrin repeat fusion protein-binding reaction, cells were washed twice with PBS. Direct immunofluorescent detection of the His-tagged ankyrin repeat fusion proteins using Penta-His AF647 conjugate (QIAgen) and determination of live cells using LIVE/DEAD™ Fixable Green Dead Cell Stain Kit (ThermoFisher) were then performed together in one step. […] Acquisition and FACS analysis, including the determination of median fluorescence intensity (MFI), were done within 5 days after staining using an AttuneNxT instrument. […]

Kd [1]: 1.3 nM
EC50 (read off the curve) [2]: ~2 nM
B1: DARPin® protein #41 (designed binder)
chain: MRGSHHHHHHGSDLGKKLLEAARAGQDDEVRELLKAGADVNAKDYFSHTPLHLAARNGHLKIVEVLLKAGADVNAKDFAGKTPLHLAANEGHLEIVEVLLKAGADVNAQDIFGKTPADIAADAGHEDIAEVLQKAAGSPTPTPTTPTPTPTTPTPTPTGSDLGEKLLVAALYGQDDEVRILLAAGADVNAKDQWGLTPLHKAALQGHLEIVEVLLKAGADVNAKDERGHTPLHWAARFGHLEIVEVLLKAGADVNAQDQKGYTPADLAALWGHEDIAEVLQKAA
notes: Fusion of a serum albumin-specific and a FAP-specific ankyrin repeat domain
